# According to paper PMC10656227:
# Experiments:
# [1] = target: collagen IV NC1 domains of the NC1 hexamer from American lobster (American lobster (Homarus americanus)); experiment: SDS-PAGE (SDS resistance of the native hexamer); straight collagenase digest of tissue or animals; regular SDS-PAGE without Cl^− supplement; sample at room temperature; Western blot with JK2
# [2] = target: collagen IV NC1 domains of the NC1 hexamer from American lobster (American lobster (Homarus americanus)); experiment: SDS-PAGE (SDS resistance of the native hexamer); straight collagenase digest of tissue or animals; SDS-PAGE with 150 mM NaCl; sample at room temperature; Western blot with JK2
# [3] = target: collagen IV NC1 domains of the NC1 hexamer from cicada (cicada (Magicicada spp)); experiment: SDS-PAGE (SDS resistance of the native hexamer); straight collagenase digest of tissue or animals; regular SDS-PAGE without Cl^− supplement; sample at room temperature; Western blot with JK2
# [4] = target: collagen IV NC1 domains of the NC1 hexamer from cicada (cicada (Magicicada spp)); experiment: SDS-PAGE (SDS resistance of the native hexamer); straight collagenase digest of tissue or animals; SDS-PAGE with 150 mM NaCl; sample at room temperature; Western blot with JK2
# [5] = target: collagen IV NC1 domains of the NC1 hexamer from mouse kidney (mouse (Mus musculus)); experiment: as above
# [6] = target: collagen IV NC1 domains of the NC1 hexamer from fruit fly (fruit fly (Drosophila melanogaster)); experiment: SDS-PAGE (SDS resistance of the native hexamer); purified NC1 hexamer; regular SDS-PAGE without Cl^− supplement; sample at room temperature, not boiled; Coomassie, TCE or Western blot
# [7] = target: collagen IV NC1 domains of the NC1 hexamer from fruit fly (fruit fly (Drosophila melanogaster)); experiment: SDS-PAGE (SDS resistance of the native hexamer); purified NC1 hexamer; Tris-glycine SDS-PAGE with 150 mM NaCl in running buffer and sample buffer; sample at room temperature, not boiled; Coomassie, TCE or Western blot
# [8] = target: collagen IV NC1 domains of the NC1 hexamer from rotifers (rotifer (Brachionus plicatilis)); experiment: SDS-PAGE (SDS resistance of the native hexamer); partially purified NC1 hexamer (SEC hexamer fraction); regular SDS-PAGE without Cl^− supplement; sample at room temperature; Western blot with JK2 or TCE in-gel visualization
# [9] = target: collagen IV NC1 domains of the NC1 hexamer from rotifers (rotifer (Brachionus plicatilis)); experiment: SDS-PAGE (SDS resistance of the native hexamer); partially purified NC1 hexamer (SEC hexamer fraction); SDS-PAGE with 150 mM NaCl; sample at room temperature; Western blot with JK2 or TCE in-gel visualization
# [10] = target: collagen IV NC1 domains of the NC1 hexamer from brine shrimp (brine shrimp (Artemia salina)); experiment: SDS-PAGE (SDS resistance of the native hexamer); straight collagenase digest of tissue or animals; regular SDS-PAGE without Cl^− supplement; sample at room temperature; Western blot with JK2
# [11] = target: collagen IV NC1 domains of the NC1 hexamer from brine shrimp (brine shrimp (Artemia salina)); experiment: SDS-PAGE (SDS resistance of the native hexamer); straight collagenase digest of tissue or animals; SDS-PAGE with 150 mM NaCl; sample at room temperature; Western blot with JK2
# [12] = target: collagen IV NC1 domains of the NC1 hexamer from Caenorhabditis elegans (Caenorhabditis elegans); experiment: SDS-PAGE (SDS resistance of the native hexamer); partially purified NC1 hexamer (SEC hexamer fraction); regular SDS-PAGE without Cl^− supplement; sample at room temperature; Western blot with JK2 or TCE in-gel visualization
# [13] = target: collagen IV NC1 domains of the NC1 hexamer from Caenorhabditis elegans (Caenorhabditis elegans); experiment: SDS-PAGE (SDS resistance of the native hexamer); partially purified NC1 hexamer (SEC hexamer fraction); SDS-PAGE with 150 mM NaCl; sample at room temperature; Western blot with JK2 or TCE in-gel visualization
# [14] = target: collagen IV NC1 domains of the NC1 hexamer from starlet sea anemone (starlet sea anemone (Nematostella vectensis)); experiment: as above
# [15] = target: collagen IV NC1 domains of the NC1 hexamer from condylactis anemone (condylactis anemone (Condylactis gigantea)); experiment: as above
# [16] = target: collagen IV NC1 domains of the NC1 hexamer from marmoset kidney (common marmoset (Callithrix jacchus)); experiment: as above
# [17] = target: collagen IV NC1 domains of the NC1 hexamer from comb jelly (comb jelly (Mnemiopsis leidyi)); experiment: SDS-PAGE (SDS resistance of the native hexamer); partially purified NC1 hexamer (SEC hexamer fraction); regular SDS-PAGE without Cl^− supplement; sample at room temperature; Western blot with JK2 or TCE in-gel visualization
# [18] = target: collagen IV NC1 domains of the NC1 hexamer from comb jelly (comb jelly (Mnemiopsis leidyi)); experiment: SDS-PAGE (SDS resistance of the native hexamer); partially purified NC1 hexamer (SEC hexamer fraction); SDS-PAGE with 150 mM NaCl; sample at room temperature; Western blot with JK2 or TCE in-gel visualization
# [19] = target: collagen IV NC1 domains of the NC1 hexamer from brown planaria (brown planaria (Dugesia tigrina)); experiment: SDS-PAGE (SDS resistance of the native hexamer); partially purified NC1 hexamer (SEC hexamer fraction); regular SDS-PAGE without Cl^− supplement; sample at room temperature; Western blot with JK2 or TCE in-gel visualization
# [20] = target: collagen IV NC1 domains of the NC1 hexamer from brown planaria (brown planaria (Dugesia tigrina)); experiment: SDS-PAGE (SDS resistance of the native hexamer); partially purified NC1 hexamer (SEC hexamer fraction); SDS-PAGE with 150 mM NaCl; sample at room temperature; Western blot with JK2 or TCE in-gel visualization
# [21] = target: collagen IV NC1 domains of the NC1 hexamer from moon jellyfish (moon jellyfish (Aurelia aurita)); experiment: as above
# [22] = target: collagen IV NC1 domains of the NC1 hexamer from horseshoe crab flatworm (horseshoe crab flatworm (Bdelloura candida)); experiment: as above
# [23] = target: collagen IV NC1 domains of the NC1 hexamer from Ascaris suum (Ascaris suum); experiment: SDS-PAGE (SDS resistance of the native hexamer); purified NC1 hexamer; regular SDS-PAGE without Cl^− supplement; sample at room temperature, not boiled; Coomassie, TCE or Western blot
# [24] = target: collagen IV NC1 domains of the NC1 hexamer from Ascaris suum (Ascaris suum); experiment: SDS-PAGE (SDS resistance of the native hexamer); purified NC1 hexamer; Tris-glycine SDS-PAGE with 150 mM NaCl in running buffer and sample buffer; sample at room temperature, not boiled; Coomassie, TCE or Western blot
substance,measurement,setting,value
collagen IV NC1 domains of the NC1 hexamer from American lobster (domain or fragment),stoichiometry N,[1],6
same,stoichiometry N,[2],6
collagen IV NC1 domains of the NC1 hexamer from cicada (domain or fragment),stoichiometry N,[3],6
same,stoichiometry N,[4],6
collagen IV NC1 domains of the NC1 hexamer from mouse kidney (domain or fragment),stoichiometry N,[5],6
collagen IV NC1 domains of the NC1 hexamer from fruit fly (domain or fragment),stoichiometry N,[6],6
same,stoichiometry N,[7],6
collagen IV NC1 domains of the NC1 hexamer from rotifers (domain or fragment),stoichiometry N,[8],6
same,stoichiometry N,[9],6
collagen IV NC1 domains of the NC1 hexamer from brine shrimp (domain or fragment),stoichiometry N,[10],6
same,stoichiometry N,[11],6
collagen IV NC1 domains of the NC1 hexamer from Caenorhabditis elegans (domain or fragment),stoichiometry N,[12],6
same,stoichiometry N,[13],6
collagen IV NC1 domains of the NC1 hexamer from starlet sea anemone (domain or fragment),stoichiometry N,[14],6
collagen IV NC1 domains of the NC1 hexamer from condylactis anemone (domain or fragment),stoichiometry N,[15],6
collagen IV NC1 domains of the NC1 hexamer from marmoset kidney (domain or fragment),stoichiometry N,[16],6
collagen IV NC1 domains of the NC1 hexamer from comb jelly (domain or fragment),stoichiometry N,[17],6
same,stoichiometry N,[18],6
collagen IV NC1 domains of the NC1 hexamer from brown planaria (domain or fragment),stoichiometry N,[19],6
same,stoichiometry N,[20],6
collagen IV NC1 domains of the NC1 hexamer from moon jellyfish (domain or fragment),stoichiometry N,[21],6
collagen IV NC1 domains of the NC1 hexamer from horseshoe crab flatworm (domain or fragment),stoichiometry N,[22],6
collagen IV NC1 domains of the NC1 hexamer from Ascaris suum (domain or fragment),stoichiometry N,[23],6
same,stoichiometry N,[24],6
